The values that follow come from PMC12102759 (2025).

The chains are these.
B1: AXIN1 peptide 235-250 (Axin-1), 16-mer library wild type / PP2A B56 (PPP2R5A B56 domain, residues 1-486) (parent complex)
chain 1: SGYLPTLNEDEEWKAD
chain 2: not shown

The variants in this assay derive from B1. Nature of the assay: proteomic peptide phage display deep mutational scan (ProP-PD DMS): M13 P8 16-mer library selected against immobilised GST-tagged bait for four days (rounds), NGS of the eluted pools per day and pseudo-replica; bait immobilised on MaxiSorp plates (10 µg), library pre-cleared on GST, 2 h binding at 4 °C, five washes; one round per day, days 1-4; value from days 2 and 3.
As to chain 1 G2V, the screen value was 0.000268 average fractional NGS count over selection days 2 and 3 (reads of this peptide / all reads for the bait, averaged over …. For the variant chain 1 G2E, the screen value is 0.000393 average fractional NGS count over selection days 2 and 3 (reads of this peptide / all reads for the bait, averaged over …. For the variant chain 1 G2D, the screen value is 0.000338 average fractional NGS count over selection days 2 and 3 (reads of this peptide / all reads for the bait, averaged over …. With chain 1 G2S the figure was 0.000675 average fractional NGS count over selection days 2 and 3 (reads of this peptide / all reads for the bait, averaged over …; with chain 1 G2A, 0.00077 average fractional NGS count over selection days 2 and 3 (reads of this peptide / all reads for the bait, averaged over …. As for chain 1 G2L, the figure is 0.000458 average fractional NGS count over selection days 2 and 3 (reads of this peptide / all reads for the bait, averaged over …; as for chain 1 G2H, 0.000834 average fractional NGS count over selection days 2 and 3 (reads of this peptide / all reads for the bait, averaged over …; as for chain 1 G2M, 0.0011 average fractional NGS count over selection days 2 and 3 (reads of this peptide / all reads for the bait, averaged over …. With chain 1 G2W the figure was 0.00074 average fractional NGS count over selection days 2 and 3 (reads of this peptide / all reads for the bait, averaged over …; with chain 1 G2I, 0.000957 average fractional NGS count over selection days 2 and 3 (reads of this peptide / all reads for the bait, averaged over ….

Consider chain 1 G2K, for which the screen value is 0.000562 average fractional NGS count over selection days 2 and 3 (reads of this peptide / all reads for the bait, averaged over …. With chain 1 E11F the figure was 0.00161 average fractional NGS count over selection days 2 and 3 (reads of this peptide / all reads for the bait, averaged over …; with chain 1 E11V, 0.000234 average fractional NGS count over selection days 2 and 3 (reads of this peptide / all reads for the bait, averaged over …; with chain 1 E11K, 0.000202 average fractional NGS count over selection days 2 and 3 (reads of this peptide / all reads for the bait, averaged over ….

Take chain 1 E11S: the screen value is 0.000584 average fractional NGS count over selection days 2 and 3 (reads of this peptide / all reads for the bait, averaged over ….

As for chain 1 E11N, the screen value was 0.00018 average fractional NGS count over selection days 2 and 3 (reads of this peptide / all reads for the bait, averaged over …. As for chain 1 E11Y, the figure is 0.000271 average fractional NGS count over selection days 2 and 3 (reads of this peptide / all reads for the bait, averaged over …; as for chain 1 E11A, 0.000236 average fractional NGS count over selection days 2 and 3 (reads of this peptide / all reads for the bait, averaged over …. With chain 1 E11R the figure was 0.000311 average fractional NGS count over selection days 2 and 3 (reads of this peptide / all reads for the bait, averaged over …; with chain 1 E11Q, 0.00516 average fractional NGS count over selection days 2 and 3 (reads of this peptide / all reads for the bait, averaged over …; with chain 1 E11W, 0.000117 average fractional NGS count over selection days 2 and 3 (reads of this peptide / all reads for the bait, averaged over …. As for chain 1 N8Y, the figure is 0.00143 average fractional NGS count over selection days 2 and 3 (reads of this peptide / all reads for the bait, averaged over …; as for chain 1 N8W, 0.000126 average fractional NGS count over selection days 2 and 3 (reads of this peptide / all reads for the bait, averaged over …; as for chain 1 N8A, 0.000156 average fractional NGS count over selection days 2 and 3 (reads of this peptide / all reads for the bait, averaged over …. Take chain 1 N8F: the screen value was 0.000687 average fractional NGS count over selection days 2 and 3 (reads of this peptide / all reads for the bait, averaged over …. Consider chain 1 N8I, for which the screen value is 0.00188 average fractional NGS count over selection days 2 and 3 (reads of this peptide / all reads for the bait, averaged over ….

For the variant chain 1 N8S, the screen value is 0.000146 average fractional NGS count over selection days 2 and 3 (reads of this peptide / all reads for the bait, averaged over ….

As to chain 1 N8H, the screen value was 0.000177 average fractional NGS count over selection days 2 and 3 (reads of this peptide / all reads for the bait, averaged over ….

On to chain 1 N8M, for which the screen value is 0.000721 average fractional NGS count over selection days 2 and 3 (reads of this peptide / all reads for the bait, averaged over …. With chain 1 N8K the figure was 0.000298 average fractional NGS count over selection days 2 and 3 (reads of this peptide / all reads for the bait, averaged over …. As to chain 1 N8Q, the screen value is 0.00306 average fractional NGS count over selection days 2 and 3 (reads of this peptide / all reads for the bait, averaged over ….

On to chain 1 N8R, for which the screen value is 0.000829 average fractional NGS count over selection days 2 and 3 (reads of this peptide / all reads for the bait, averaged over …. As for chain 1 N8T, the figure is 0.000511 average fractional NGS count over selection days 2 and 3 (reads of this peptide / all reads for the bait, averaged over …; as for chain 1 N8E, 0.000839 average fractional NGS count over selection days 2 and 3 (reads of this peptide / all reads for the bait, averaged over …; as for chain 1 N8P, 0.000473 average fractional NGS count over selection days 2 and 3 (reads of this peptide / all reads for the bait, averaged over …. chain 1 W13L: the screen value is 0.000454 average fractional NGS count over selection days 2 and 3 (reads of this peptide / all reads for the bait, averaged over …. As for chain 1 W13F, the figure is 0.000389 average fractional NGS count over selection days 2 and 3 (reads of this peptide / all reads for the bait, averaged over …; as for chain 1 W13Y, 0.000277 average fractional NGS count over selection days 2 and 3 (reads of this peptide / all reads for the bait, averaged over ….

Turning to chain 1 W13M, the screen value is 0.000138 average fractional NGS count over selection days 2 and 3 (reads of this peptide / all reads for the bait, averaged over …. With chain 1 A15S the figure was 0.000672 average fractional NGS count over selection days 2 and 3 (reads of this peptide / all reads for the bait, averaged over …; with chain 1 A15Y, 0.000791 average fractional NGS count over selection days 2 and 3 (reads of this peptide / all reads for the bait, averaged over …. As for chain 1 A15L, the figure is 0.00106 average fractional NGS count over selection days 2 and 3 (reads of this peptide / all reads for the bait, averaged over …; as for chain 1 A15W, 0.000559 average fractional NGS count over selection days 2 and 3 (reads of this peptide / all reads for the bait, averaged over …; as for chain 1 A15P, 0.00074 average fractional NGS count over selection days 2 and 3 (reads of this peptide / all reads for the bait, averaged over …. In the case of chain 1 A15G, the screen value was 0.000885 average fractional NGS count over selection days 2 and 3 (reads of this peptide / all reads for the bait, averaged over …. With chain 1 A15F the figure was 0.000658 average fractional NGS count over selection days 2 and 3 (reads of this peptide / all reads for the bait, averaged over …. chain 1 A15N: the screen value is 0.000145 average fractional NGS count over selection days 2 and 3 (reads of this peptide / all reads for the bait, averaged over …. On to chain 1 A15T, for which the screen value is 0.000294 average fractional NGS count over selection days 2 and 3 (reads of this peptide / all reads for the bait, averaged over …. With chain 1 A15M, the screen value is 0.00211 average fractional NGS count over selection days 2 and 3 (reads of this peptide / all reads for the bait, averaged over …. As for chain 1 Y3F, the figure is 0.000133 average fractional NGS count over selection days 2 and 3 (reads of this peptide / all reads for the bait, averaged over …. With chain 1 Y3S the figure was 0.000173 average fractional NGS count over selection days 2 and 3 (reads of this peptide / all reads for the bait, averaged over …; with chain 1 Y3L, 0.000544 average fractional NGS count over selection days 2 and 3 (reads of this peptide / all reads for the bait, averaged over …. With chain 1 Y3A the figure was 0.00043 average fractional NGS count over selection days 2 and 3 (reads of this peptide / all reads for the bait, averaged over …; with chain 1 Y3V, 0.00041 average fractional NGS count over selection days 2 and 3 (reads of this peptide / all reads for the bait, averaged over …; with chain 1 E12A, 0.000112 average fractional NGS count over selection days 2 and 3 (reads of this peptide / all reads for the bait, averaged over …. For chain 1 E12V, the screen value is 0.000291 average fractional NGS count over selection days 2 and 3 (reads of this peptide / all reads for the bait, averaged over ….

In the case of chain 1 E12F, the screen value is 0.000153 average fractional NGS count over selection days 2 and 3 (reads of this peptide / all reads for the bait, averaged over …. As for chain 1 E12P, the figure is 0.000257 average fractional NGS count over selection days 2 and 3 (reads of this peptide / all reads for the bait, averaged over …. As for chain 1 E12L, the figure is 0.00045 average fractional NGS count over selection days 2 and 3 (reads of this peptide / all reads for the bait, averaged over …; as for chain 1 E12Q, 0.000677 average fractional NGS count over selection days 2 and 3 (reads of this peptide / all reads for the bait, averaged over …; as for chain 1 L7I, 0.000349 average fractional NGS count over selection days 2 and 3 (reads of this peptide / all reads for the bait, averaged over ….

chain 1 T6A: the screen value is 0.000414 average fractional NGS count over selection days 2 and 3 (reads of this peptide / all reads for the bait, averaged over …. chain 1 T6I: the screen value was 0.000627 average fractional NGS count over selection days 2 and 3 (reads of this peptide / all reads for the bait, averaged over ….

Turning to chain 1 T6V, the screen value is 0.00125 average fractional NGS count over selection days 2 and 3 (reads of this peptide / all reads for the bait, averaged over …. With chain 1 T6P the figure was 0.000157 average fractional NGS count over selection days 2 and 3 (reads of this peptide / all reads for the bait, averaged over …; with chain 1 P5Y, 0.000222 average fractional NGS count over selection days 2 and 3 (reads of this peptide / all reads for the bait, averaged over …. In the case of chain 1 P5A, the screen value was 0.00054 average fractional NGS count over selection days 2 and 3 (reads of this peptide / all reads for the bait, averaged over …. With chain 1 K14R the figure was 0.000196 average fractional NGS count over selection days 2 and 3 (reads of this peptide / all reads for the bait, averaged over ….
